Source: patent US20130177572A1 (X BODY, published 2013)

What follows are binders tested against T1, human PDGFRβ (human, UniProt P09619 33-530, limits assumed) (assay: ELISA of unpaired VL domains: plate coated with human PDGFRβ or human Fc, OD 450 nm).
T1 construct: also called hPDGFRβ; recombinant human PDGFRβ
Protocol: A PDGFRβ binding ELISA assay was performed to assess the binding of the scFv to immobilized PDGFRβ and to determine the EC50. Specifically, 2 ug/mL of human PDGFRβ and human Fc or IgG in PBS was immobilized on Maxisorp plates at 4° C. overnight. The plate was then washed and blocked with superblock. […] 100 ul of the diluted scFv lysate was loaded into each well of Maxisorp plates and incubated for 1 hour at room temperature. scFv that bound to immobilized PDGFRβ was detected by anti-flag antibody-HRP at 1:5000 dilution and a TMB substrate. The plate was read on a Molecular Device plate reader with end point assay at OD 450 nm.

T1 sequence (P09619 33-530 limits assumed): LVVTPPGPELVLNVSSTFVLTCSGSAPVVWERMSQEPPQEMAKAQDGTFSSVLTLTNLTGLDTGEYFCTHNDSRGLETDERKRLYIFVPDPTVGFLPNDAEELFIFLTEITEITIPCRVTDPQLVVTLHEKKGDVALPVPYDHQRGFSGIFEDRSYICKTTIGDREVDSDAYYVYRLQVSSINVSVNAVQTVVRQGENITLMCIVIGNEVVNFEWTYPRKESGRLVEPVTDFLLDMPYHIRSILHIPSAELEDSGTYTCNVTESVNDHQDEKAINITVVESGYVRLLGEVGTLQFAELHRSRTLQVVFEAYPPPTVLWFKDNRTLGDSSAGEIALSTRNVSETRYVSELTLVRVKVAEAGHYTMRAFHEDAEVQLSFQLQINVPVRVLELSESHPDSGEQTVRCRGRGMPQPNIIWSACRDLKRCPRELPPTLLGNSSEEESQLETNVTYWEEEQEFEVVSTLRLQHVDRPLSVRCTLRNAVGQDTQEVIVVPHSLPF

Row | Binder | binding result
1 | H11 VL (other, unpaired VL domain; also called unpaired H11 VL domain) VL domain: QSVLTQSPDFQSVTPKEKVTITCRASQSIGSSLHWYQQKPDQSPKLLITFASQSFSGVPSRFSGSGSGTDFTLTINSLEAEDAATYYCHQSRNLPFTFGPGTKLTVL | no binding (tested: no concentration on the sheet)
2 | G11 VL (other, unpaired VL domain; also called unpaired G11 VL domain) VL domain: EIVLTQSPGTLSLSPGEGATLSCRASQSVSSRNLAWYQQKPGQAPRLLIYGGSIRASGTSTRFSGSGSGTDFTLTINRLEPEDFAVYYCQQYGDSVFTFGPGTKVDIK | no binding (tested: no concentration on the sheet)
3 | B11 VL (other, unpaired VL domain; also called unpaired B11 VL domain) VL domain: QSVLTQSPGTLSLSPGERATLSCRASQSVSSNYLAWYQQKPGQAPRLLIYGASSRASGIPVRVSGSGSGTDFTLTISRLEPEDFAVYYCQQYGSSPWTFGQGTKLTVL | no binding (tested: no concentration on the sheet)
4 | H8 VL (other, unpaired VL domain; also called unpaired H8 VL domain) VL domain: QSVLTQSPGTLSLSPGERATLSCRASQSVSSNYLAWYLQKPGQAPRLLISGASSRATGIPDRFSGSGSGTDFTLTISRLEPEDFAVYYCQQYAGSPFTFGPGTKLTVL | no binding (tested: no concentration on the sheet)
5 | G8 VL (other, unpaired VL domain; also called unpaired G8 VL domain) VL domain: QSVLTQSPGTLSLSPGDRATLSCRASQSLSGTYLAWYQQKPGQAPRLLIYDASNRAAGIPKRFSGSGSRTDFTLTISRVDPADSAVYYCQQYGSALLTFGGGTKVTVL | no binding (tested: no concentration on the sheet)
6 | H10 VL (other, unpaired VL domain; also called unpaired H10 VL domain) VL domain: QSVLTQSPDFQSVSPKDKVTITCRASQSIGSSLHWYQQKPGQSPKLLIKYSSQSFSGVPSRFSGSASGTEFTLTITGLEAEDAATYYCHQSSSLPHTFGQGTKVTVL | no binding (tested: no concentration on the sheet)
7 | C7 VL (other, unpaired VL domain; also called unpaired C7 VL domain) VL domain: DIVMTQTPLSLSVTPGQPASISCKSSQSLLHSDGKTHLFWYLQRPGQSPQLLIYEVSGRFSGVSERFSGSGSGTDFTLKISRVEAEDVGVYYCMQGLHIPHTFGQGTKVEIK | no binding (tested: no concentration on the sheet)
8 | A8 VL (other, unpaired VL domain; also called unpaired A8 VL domain) VL domain: QAGLTQSPDFQSVTPKERVTITCRASRYIGSNLHWYQQKPDQPPKLLIKLASQSFSGVPPRFSGGGSGTDFTLTINGLEAEDAATYYCHQTGSFPYTFGQGTKLTVL | no binding (tested: no concentration on the sheet)

These binders were tested against T1, human PDGFRβ (assay: ELISA: plate coated with 2 ug/mL human PDGFRβ or human Fc, in vitro translated crude lysate diluted 1:3, anti-flag-HRP, OD450).
Protocol: (§1) A PDGFRβ binding ELISA assay was performed to assess the binding of the scFv to immobilized PDGFRβ and to determine the EC50. Specifically, 2 ug/mL of human PDGFRβ and human Fc or IgG in PBS was immobilized on Maxisorp plates at 4° C. overnight. The plate was then washed and blocked with superblock. In vitro translated crude scFv lysate was diluted 1:3 in 1×PBST. 100 ul of the diluted scFv lysate was loaded into each well of Maxisorp plates and incubated for 1 hour at room temperature. scFv that bound to immobilized PDGFRβ was detected by anti-flag antibody-HRP at 1:5000 dilution and a TMB substrate. The plate was read on a Molecular Device plate reader with end point assay at OD 450 nm.

Row | binding result | Binder
9 | binds | A8 scFv (scFv, V domains shown, VL of the second round pool paired with XB1511 VH) VH: QVQLVQSGAEVKKPGSSVKVSCKASGGTFSSYAISWVRQAPGQGLEWMGGIIPIFGTANYAQKFQGRVTITADESTSTAYMELSSLRSEDTAVYYCAIHGGDRSYWGQGTLVTVSS VL: QAGLTQSPDFQSVTPKERVTITCRASRYIGSNLHWYQQKPDQPPKLLIKLASQSFSGVPPRFSGGGSGTDFTLTINGLEAEDAATYYCHQTGSFPYTFGQGTKLTVL
10 | binds | G8 scFv (scFv, V domains shown, VL of the second round pool paired with XB1511 VH) VH: QVQLVQSGAEVKKPGSSVKVSCKASGGTFSSYAISWVRQAPGQGLEWMGGIIPIFGTANYAQKFQGRVTITADESTSTAYMELSSLRSEDTAVYYCAIHGGDRSYWGQGTLVTVSS VL: QSVLTQSPGTLSLSPGDRATLSCRASQSLSGTYLAWYQQKPGQAPRLLIYDASNRAAGIPKRFSGSGSRTDFTLTISRVDPADSAVYYCQQYGSALLTFGGGTKVTVL
11 | binds | B11 scFv (scFv, V domains shown, VL of the second round pool paired with XB1511 VH; also called XB1511/B11 scFv) VH: QVQLVQSGAEVKKPGSSVKVSCKASGGTFSSYAISWVRQAPGQGLEWMGGIIPIFGTANYAQKFQGRVTITADESTSTAYMELSSLRSEDTAVYYCAIHGGDRSYWGQGTLVTVSS VL: QSVLTQSPGTLSLSPGERATLSCRASQSVSSNYLAWYQQKPGQAPRLLIYGASSRASGIPVRVSGSGSGTDFTLTISRLEPEDFAVYYCQQYGSSPWTFGQGTKLTVL

The binders below were run against T1, human PDGFRβ (assay: ELISA: plate coated with 2 ug/mL human PDGFRβ or human IgG, in vitro translated crude scFv lysate diluted 1:3, anti-flag-HRP, OD450).
Protocol: as §1

Row | Binder | binding result
12 | B6 (scFv, V domains shown, also called XB2202/B6 scFv) VH: QVQLVQSGAEVKKPGSSVRVSCKASGGTFSRHAISWVRQAPGQGLEWIGGILPILKTPNYAQRFQGRVTINADESTSTVYMEMSSLRSEDTAVYYCATHGGDRSYWGQGTLVTVSS VL: EIVLTQSPGTLSLSPGERATLSCRASQSFGSNYLAWYQHKPGQAPRLLIFAASNRATGIPDRFTGSASGTDFTLTINRVEPEDLAVYYCQQYGSFPYSFGQGTKLEIK | binds
13 | G5 (scFv, V domains shown, also called XB2202/G5 scFv) VH: QVQLVQSGAEVKKPGSSVRVSCKASGGTFSRHAISWVRQAPGQGLEWIGGILPILKTPNYAQRFQGRVTINADESTSTVYMEMSSLRSEDTAVYYCATHGGDRSYWGQGTLVTVSS VL: DIQMTQSPSSLSASVGDRVTITCRASQDISSSLAWYQQKPGKAPKPLIYDASTLQTGVPSRFSGRASGTDFTLTIDSLQPEDFATYCCQQFNSYPLSFGGGTKVELKR | binds
14 | F3 (scFv, V domains shown, also called XB2202/F3 scFv) VH: QVQLVQSGAEVKKPGSSVRVSCKASGGTFSRHAISWVRQAPGQGLEWIGGILPILKTPNYAQRFQGRVTINADESTSTVYMEMSSLRSEDTAVYYCATHGGDRSYWGQGTLVTVSS VL: QSVLTQPPSVSVAPGKTARITCGGNNIGSKSVHWYQQKPGQAPVLVIYYDSDRPSGIPERFSGSNSGNTATLTISRVEAGDEADYYCQVWDSSSDHWVFGGGTKLTVL | binds

Results, then the binder that gave them:

Row | binding result | Binder
15 | binds | H5 (scFv, V domains shown, also called XB2202/H5 scFv) VH: QVQLVQSGAEVKKPGSSVRVSCKASGGTFSRHAISWVRQAPGQGLEWIGGILPILKTPNYAQRFQGRVTINADESTSTVYMEMSSLRSEDTAVYYCATHGGDRSYWGQGTLVTVSS VL: SYELTQPPSVSMAPGKTARITCGGNNLGSKIVHWYQQKPGQAPVVVIYSDRDRPSGVPERFSGSNSGNSATLTISGVEAGDEADYYCQVWDSATDHVVFGGGTKLTVL
16 | binds | D1 (scFv, V domains shown, also called XB2202/D1 scFv) VH: QVQLVQSGAEVKKPGSSVRVSCKASGGTFSRHAISWVRQAPGQGLEWIGGILPILKTPNYAQRFQGRVTINADESTSTVYMEMSSLRSEDTAVYYCATHGGDRSYWGQGTLVTVSS VL: DIVMTQTPLSLSVTPGQPAAISCKSSQSLVHRDGKTYLYWYLQKPGHSPQLLVYEASSRFSGVPDRISGSASGTQFTLNISRVEAEDVGLYYCMQSRNLPKTFGQGTKVEIK

What follows are binders tested against T1, human PDGFRβ (assay: solution equilibrium binding: 35S-Met labelled in vitro translated protein, human PDGFRβ titrated, capture on protein A beads, scintillation counts).
Protocol: The affinity of several scFvs was determined by solution based equilibrium binding assay. Specifically, 120 pmol of scFv RNA was translated into free protein with ³⁵S Met incorporated. The translated reaction mixture was 3-fold diluted in binding buffer containing 1×PBS with 0.025% triton, 1 mg/mL BSA and 0.1 mg/mL sssDNA. Human PDGFRβ was diluted in the same binding buffer to final concentrations from 100 nM to 0 nM. The diluted scFv mixture was incubated with hPDGFRβ in final volume of 100 ul on Kingfisher plates (Thermofisher Scientific, 97002084). Following incubation, 25 ul of protein A magnetic beads (Invitrogen) were used to capture the PDGFRβ from solution. The captured PDGFRβ was washed and eluted in kingfisher Reader (Thermofisher Scientific). The amount of scFv (labeled with ³⁵S Met) bound to the magnetic bead-immobilized hPDGFRβ was counted using a scintillation counter and the Kd was calculated with Graph Pad Prism 5.

Row | Kd | Binder
17 | 24.4 nM | H8 scFv (scFv, V domains shown, VL of the second round pool paired with XB1511 VH) VH: QVQLVQSGAEVKKPGSSVKVSCKASGGTFSSYAISWVRQAPGQGLEWMGGIIPIFGTANYAQKFQGRVTITADESTSTAYMELSSLRSEDTAVYYCAIHGGDRSYWGQGTLVTVSS VL: QSVLTQSPGTLSLSPGERATLSCRASQSVSSNYLAWYLQKPGQAPRLLISGASSRATGIPDRFSGSGSGTDFTLTISRLEPEDFAVYYCQQYAGSPFTFGPGTKLTVL
18 | 23.2 nM | H10 scFv (scFv, V domains shown, VL of the second round pool paired with XB1511 VH) VH: QVQLVQSGAEVKKPGSSVKVSCKASGGTFSSYAISWVRQAPGQGLEWMGGIIPIFGTANYAQKFQGRVTITADESTSTAYMELSSLRSEDTAVYYCAIHGGDRSYWGQGTLVTVSS VL: QSVLTQSPDFQSVSPKDKVTITCRASQSIGSSLHWYQQKPGQSPKLLIKYSSQSFSGVPSRFSGSASGTEFTLTITGLEAEDAATYYCHQSSSLPHTFGQGTKVTVL
19 | 12.9 nM | H11 scFv (scFv, V domains shown, VL of the second round pool paired with XB1511 VH) VH: QVQLVQSGAEVKKPGSSVKVSCKASGGTFSSYAISWVRQAPGQGLEWMGGIIPIFGTANYAQKFQGRVTITADESTSTAYMELSSLRSEDTAVYYCAIHGGDRSYWGQGTLVTVSS VL: QSVLTQSPDFQSVTPKEKVTITCRASQSIGSSLHWYQQKPDQSPKLLITFASQSFSGVPSRFSGSGSGTDFTLTINSLEAEDAATYYCHQSRNLPFTFGPGTKLTVL
